Publication PMC8904574 (2022)

Columns and labels:
[1] = target: α-subunit of the F1 part of the Na+-F1FO-ATP synthase of Acetobacterium woodii, N-terminal StrepI tag (Acetobacterium woodii (strain ATCC …, UniProt P50000)); experiment: LILBID-MS; tested with 2 mM ATP/2 mM MgCl2; δ binds only once the α3β3 hexameric head (α3β3γ/α3β3γε) is preformed
[2] = target: β-subunit of the F1 part of the Na+-F1FO-ATP synthase of Acetobacterium woodii, N-terminal His6 tag (Acetobacterium woodii (strain ATCC …, UniProt P50002)); experiment: as above
Sequence of β-subunit of the F1 part of the Na+-F1FO-ATP synthase of Acetobacterium woodii, N-terminal His6 tag (Acetobacterium woodii (P50002 whole entry): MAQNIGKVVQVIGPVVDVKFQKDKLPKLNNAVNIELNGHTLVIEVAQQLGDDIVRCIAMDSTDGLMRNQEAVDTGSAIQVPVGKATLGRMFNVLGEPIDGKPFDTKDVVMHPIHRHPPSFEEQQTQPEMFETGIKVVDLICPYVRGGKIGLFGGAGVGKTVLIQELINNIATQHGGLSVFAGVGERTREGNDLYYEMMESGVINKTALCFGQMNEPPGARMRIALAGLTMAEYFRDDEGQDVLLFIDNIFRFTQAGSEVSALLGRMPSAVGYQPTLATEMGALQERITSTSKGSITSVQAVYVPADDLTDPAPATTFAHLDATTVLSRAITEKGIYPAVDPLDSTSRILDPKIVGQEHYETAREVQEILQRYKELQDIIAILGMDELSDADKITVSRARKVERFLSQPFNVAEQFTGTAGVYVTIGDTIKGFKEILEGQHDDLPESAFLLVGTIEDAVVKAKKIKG

Sequence of α-subunit of the F1 part of the Na+-F1FO-ATP synthase of Acetobacterium woodii, N-terminal StrepI tag (Acetobacterium woodii (P50000 whole entry): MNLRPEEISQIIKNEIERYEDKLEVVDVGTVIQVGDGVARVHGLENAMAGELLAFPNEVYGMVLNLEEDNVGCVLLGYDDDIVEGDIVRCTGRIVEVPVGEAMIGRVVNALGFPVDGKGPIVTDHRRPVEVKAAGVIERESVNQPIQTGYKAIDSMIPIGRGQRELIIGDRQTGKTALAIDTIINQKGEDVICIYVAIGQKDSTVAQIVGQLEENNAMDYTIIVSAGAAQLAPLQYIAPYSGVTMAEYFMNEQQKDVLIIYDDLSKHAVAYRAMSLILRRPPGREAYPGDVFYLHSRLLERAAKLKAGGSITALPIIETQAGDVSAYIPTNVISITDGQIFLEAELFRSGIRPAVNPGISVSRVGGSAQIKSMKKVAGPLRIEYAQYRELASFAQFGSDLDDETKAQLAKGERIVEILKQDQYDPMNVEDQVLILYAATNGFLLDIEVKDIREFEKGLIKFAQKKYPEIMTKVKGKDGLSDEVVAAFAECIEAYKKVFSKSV

- binding result [1]: no binding
- binding result [2]: no binding
B1: δ-subunit of the F1 part of the Na+-F1FO-ATP synthase of Acetobacterium woodii, C-terminal His6 tag (protein)
chain: MSLVASKYARALFDVAVDKDQLDEIFSDFKTATDLFSSEKKFMDLMLTPSLNTGEKKGILMRSLESLSNQYVKNYLMILMDKNRFEDIFDIYEAFRKLCNEHKNLVEARVLTVIPLDETLRIALEENLAKRFNKKVILENEIDKSILGGAVVYVGDQIIDGSIKNQLSQMKKQVNNLRLH
